Test results reported in patent publication US12098206B2, “PDGF receptor antibody and use thereof” (Seoul National University R&DB Foundation, priority 2018, dated 2024).

What was measured:
mPDGFR-β = target: T1, mPDGFR-β (Mus musculus, UniProt P05622); assay: Competition enzyme immunoassay with mPDGF-BB; assay type: binding; settings: mPDGF-BB 100 nM; FIG. 4a
T1 construct: mPDGFR-β
T1 sequence (P05622 32-530): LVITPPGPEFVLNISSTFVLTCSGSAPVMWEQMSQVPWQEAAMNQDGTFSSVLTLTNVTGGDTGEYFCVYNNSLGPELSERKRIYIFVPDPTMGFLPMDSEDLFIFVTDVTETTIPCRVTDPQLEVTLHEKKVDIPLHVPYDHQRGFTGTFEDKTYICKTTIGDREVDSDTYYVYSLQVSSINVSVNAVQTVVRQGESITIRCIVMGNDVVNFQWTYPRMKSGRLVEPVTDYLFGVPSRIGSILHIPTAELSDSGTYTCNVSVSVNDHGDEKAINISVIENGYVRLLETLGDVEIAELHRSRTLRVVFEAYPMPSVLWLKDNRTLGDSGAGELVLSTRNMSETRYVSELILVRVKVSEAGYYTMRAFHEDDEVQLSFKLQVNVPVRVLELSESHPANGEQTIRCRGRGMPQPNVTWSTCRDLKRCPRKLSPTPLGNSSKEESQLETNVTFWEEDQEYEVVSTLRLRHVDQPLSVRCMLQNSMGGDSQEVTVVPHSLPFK
Experimental: In order to confirm the competition between the bispecific antibody according to the present invention and mPDGF-BB, the microtiter plate was coated with mPDGFR-β-Fc chimera as mentioned above and then blocked. The microtiter plate was treated with various concentrations of the bispecific antibody (0.06 nM-1 μM) with or without addition of mPDGF-BB (100 nM), and then incubated at 37° C. for 2 hours. The washing, incubation, and detection were performed in the same manner as the enzyme immunoassay described above.
A competition enzyme immunoassay was developed to examine the effect of mPDGF-BB on the binding ability of anti-mPDGFR-β x cotinine scFv-Cκ-scFv fusion protein. The serially diluted bispecific antibodies (anti-mPDGFR-β scFv-Cκ-cotinine scFv) were incubated on wells coated with mPDGFR-β-Fc chimeric fusion protein with or without mPDGF-BB. HRP-anti-human Cκ antibody was incubated and then TMB was added. […] However, the binding ability of PRb-CN01 was not inhibited, so it confirmed that PRb-CN01 binds to mPDGFR-β in a noncompetitive manner to mPDGF-BB.

NIH3T3 cells = assay: Internalization analysis by confocal microscopy in NIH3T3 cells; assay type: cell-based, mouse; settings: 10 μg/mL, 37° C., 30 minutes, FIG. 4c
Experimental: The bispecific antibody of scFv-Cκ-scFv fusion protein was analyzed with a confocal microscope for visualizing internalization. NIH3T3 cells were treated with the bispecific antibody of scFv-Cκ-scFv (10 μg/mL) diluted in DMEM containing 10% FBS, and internalized at 37° C. for 30 minutes. After washing the cells 3 times with cold PBS, acidic buffer (0.2 M acetic acid, 0.5 M sodium chloride) was treated at room temperature for 5 minutes to remove the antibody bound to the cell surface. Cells were washed twice with cold PBS, fixed with 4% paraformaldehyde for 10 minutes, and then subjected to immunofluorescence staining as previously described [J. M. Lim et al., J. Cell. Biol. 210 (2015) 23].
Briefly, to block antibodies having non-specific reaction, cells were incubated in PBS containing 5% horse serum and 0.1% Triton X-100 for 30 minutes, and 2 μg/mL FITC-anti human Cκ antibody (TB28-2, BD Biosciences) was added at room temperature for 30 minutes. To image the initial endosomes, the cells were washed 3 times with PBS, incubated with PBS containing 5% horse serum and 0.1% Triton X-100 for 30 minutes, and then incubated with ati-RabS antibody diluted to 1:200 (C8B1, Cell Signaling Technology, Danvers, MA, USA). Alexa Fluor 546 goat anti-rabbit IgG (A-11035, Invitrogen) was sequentially treated. Cells were treated with 0.2 μg/mL DAPI to detect DNA. Confocal microscopy images were obtained using a Zeiss LSM 880 microscope, and images were analyzed with Zen software (Carl Zeiss, Thornwood, NY, USA).
To measure the cellular internalization of the bispecific antibody of scFv-Cκ-scFv, anti-mPDGFR-β x cotinine scFv-Cκ-scFv fusion protein was incubated in NIH3T3 cells, and then treated with FITC-anti-human Cκ antibody and endosome-specific antibody. It was imaged using a confocal microscope. […] When the images were merged, the present inventors confirmed that the fluorescence of the three antibody clones and the endosome-specific antibody were co-localized.

MOLT-4 cells [1] = assay: Flow cytometry binding to MOLT-4 cells not expressing mPDGFR-β; settings: 100 nM; FIG. 6
Experimental: The present inventors tested the binding ability of the bispecific antibody of scFv-Cκ-scFv fusion proteins in MOLT-4 cells not expressing mPDGFR-β by flow cytometry analysis. MOLT-4 cells were cultured with a bispecific antibody of scFv-Cκ-scFv fusion protein (100 nM) at 4° C. for 1 hour. After washing as described above, the detection was conducted by treating with an APC-anti human Cκ antibody. The MOLT-4 cells were purchased from the Korea Cell Line Bank and prepared by culturing in RPMI-1640 (Welgene, Seoul, Korea) medium added by 10% fetal bovine serum, 1% penicillin, and streptomycin.

MOLT-4 cells [2] = assay: Cytotoxicity in MOLT-4 cells not expressing mPDGFR-β; assay type: cell-based; settings: complex with cot-duo; FIG. 7
Experimental: FIG. 7 is a graph confirming the cytotoxic ability of the bispecific antibody related to the anti-mPDGFR-β antibody and cot-duo complexes in the cells not expressing PDGFR-β. In FIG. 7a, MOLT-4 cells were reacted with the bispecific antibody and cot-duo complex (DAR4). The cellular ATP was measured to evaluate the relative cell viability. In FIG. 7b, MOLT-4 cells were reacted with the bispecific antibody and cot-duo complex (DAR2). The bispecific antibody anti-HER2 x cotinine scFv-Cκ-scFv was used as a negative control. DMSO was used as a vehicle control for cot-duo.

neovascularization = assay: Laser-induced choroidal neovascularization animal model; assay type: in vivo, mice; settings: complex with cot-duo; 1 uL into the vitreous cavity, 10 nM; FIG. 10
Experimental: After anesthetizing the mice, the retina of the mouse was irradiated with an indirect ophthalmoscope system (ILOODA) laser in a 300 um spot size with 400 mW intensity, 50 ms duration, and 810 nm wavelength to induce destruction of Bruch's membrane.
After 4 days of laser irradiation, 1 uL of each bispecific antibody scFv-Cκ-scFv, and complex of the bispecific antibody scFv-Cκ-scFv fusion protein and the cot-duo was injected into the vitreous cavity at a concentration of 10 nM. After 7 days of laser irradiation, the eyes were removed to obtain retinal pigment epithelial-choroid-scleral tissue, and immunofluorescence staining was performed with isolectin B4 antibody conjugated to Alexa Fluor 594 to determine the extent of the choroidal neovascular membrane. The neovascularization inhibition ability of the scFv-Cκ-scFv fusion protein and the cot-duo complex was confirmed. To quantitatively analyze the extent of the choroidal neovascular membrane, the ImageJ program (NIH) was used.

B1: PRb-CN01: anti-mPDGFR-β chicken scFv clone (VH SEQ ID NO 7, VL SEQ ID NO 8), tested as scFv-Cκ-anti-cotinine scFv bispecific antibody (antibody, V domains shown)
VH: AVTLDESGGGLQTPGGALSLVCKASGFTFSDRAMHWVRQAPGKGLEWVGLITNTGGSTNYGAAVKGRATISRDNGQSTVRLQLNNLRAEDTGTYYCTRGVGSWAHGGRIDAWGHGTEVIVSS
VL: LTQPSSVSANPGETVKITCSGGSGSYGWFQQKSPGSAPVTVIYSNNQRPSDIPSRFSGSKSGSTNTLTITGVQAEDEAIYYCGTRDSSYVGIFGAGTTLTVL
modifications: VH of PRb-CN01; VL of PRb-CN01
binding ability to mPDGFR-β in the presence of mPDGF-BB (mPDGFR-β): not inhibited | cellular internalization (NIH3T3 cells): Intracellular fluorescence was detected | binding to MOLT-4 cells (MOLT-4 cells [1]): neither PRb-CN01 nor the anti-HER2 bispecific antibody of scFv-Cκ-scFv fusion antibody binds | toxicity in MOLT-4 cells compared to control antibody (MOLT-4 cells [2]): no difference in toxicity from the control antibody | inhibition of neovascularization (neovascularization): inhibited neovascularization
